Measured values published in paper PMC5951583 (PLoS Pathogens, 2018).
Several values for one entry are separate records, joined by “and”; a condition that tells them apart may be missing. Equal entries are not always repeated.

Target: HC-fragment of BoNT/DC fused to a C-terminal Streptag (HCDCS; AA 863–1285), wild-type (C. botulinum strain OFD05, UniProt A5JGM8 863-1285)
Assay: SPR
Settings: both partners purified

B1: GST-rSyt-II 1–61 (domain or fragment)
chain: MRNIFKRNQEPIVAPATTTATMPLAPAAPADNSTESTGTGESQEDMFAKLKDKFFNEINKI
notes: also called GST-Syt-II 1–61; isolated Syt-II
- Kd: 1.8 µM
- koff: 0.24 s⁻¹
- kon: 230000 M⁻¹ s⁻¹

B2: GST-rSyt-II 1–90 (domain or fragment)
chain: MRNIFKRNQEPIVAPATTTATMPLAPAAPADNSTESTGTGESQEDMFAKLKDKFFNEINKIPLPPWALIAMAVVAGLLLLTCCFCICKKC
notes: also called GST-Syt-II 1–90; Syt-II with its TMD
- koff: 0.49 s⁻¹ and 0.63 s⁻¹
